How the values were obtained:
[1] = biological target: acetylcholine receptor (AChR) (mouse (endogenous in C2C12 myotubes and mouse muscle)) (UniProt P04756); assay: pull-down
[2] = biological target: CD4-AChR β subunit MA loop chimera (UniProt P09690 333-469); assay: co-IP

B1: Flag-vezatin (natural protein, UniProt Q3ZK22 1-780, looked up)
chain: MTPEFDEEVVFENSPLYQYLQDLGHTDFEICSSSSPKPEKCLTTEGPQPPPTRVLQRQGILLKLTETIKSWTFSSQHSKKDDLLHKLDTGFRLDSLHTILQQEVLLQEDVELLELLDASILSAGQPQQESGHLPTLCSLATPNTWDVSLLFAFISLLIMFPTCWIVSSWLVWGIILFLYLIIRVLKLWRTAKLQMTLKKYRVRLEDMAANSRAFTNLVRKSLRLIQETEVISRGFTLVSAACSFNKAAQHPGQHLIGLRKAVYRTVRANFQAARLATLYMLKNYPLNSESDNVTNYICVVPFKELGLGLSEDQISEEEARNLTDGFSLPALKVLFQLWVAQSSEFFRRLALLLSTANSPSGPLLTAALLPHHILCDVTQGLPHAHSACLDELKRSYEFFRYFETQHQSVPQRLSKTPQKSRELSNVHTAVRSLQLHLKALLNEVIILEDELEKLVCTKETQELLSEAYPILEQKLKLIEPHVQASNSCWEEAISQVDKLLRRNTDKKGKPGVACENPHCTAEPLVRPALHIEDRDPIPEEQELEAYVDDIDIESEFRKDDFYHLSQEDRERQKREQEESRRVLQELKSVLGFKASEAERQKWKQLLFSDHAVLTSLSPVDPVESVSNSEPPMNSDTEKVNSNATEEETSKPCAGDKEDSRTEYVCDSPTEGPSKDTSADTGLLLPGAEETMCHQHESEAKSPQAAAAGATAPPTPRDTLQLSIKQRLARLQLPPEFTFSAGLAAEVAARSLSFTTMQEQTFGDEEEEQLVEGGENEVEEK
fold increase in association in rapsn−/− against rapsn+/− muscle [1]: 1.8 fold
fold increase in association with agrin treatment (against untreated myotubes) [1]: 1.6 fold
fold reduction of association when rapsyn-HA is coexpressed [2]: 4 fold

Reference: paper PMC6740198 (Molecular Biology of the Cell, 2019)
